According to patent publication US20190092852A1 (Genentech, published 2019):

T1: human IL-33 (R&D Systems, #3625-IL-010/CF) (human, UniProt O95760 112-270)
T1 construct: also called hIL-33; huIL-33
T1 sequence (looked up): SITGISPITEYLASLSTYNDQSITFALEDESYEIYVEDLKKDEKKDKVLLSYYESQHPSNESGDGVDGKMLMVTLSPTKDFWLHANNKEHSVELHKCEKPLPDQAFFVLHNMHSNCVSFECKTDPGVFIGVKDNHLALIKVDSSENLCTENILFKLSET

T2: cyno IL-33 N-His (cynomolgus monkey)
T2 chain: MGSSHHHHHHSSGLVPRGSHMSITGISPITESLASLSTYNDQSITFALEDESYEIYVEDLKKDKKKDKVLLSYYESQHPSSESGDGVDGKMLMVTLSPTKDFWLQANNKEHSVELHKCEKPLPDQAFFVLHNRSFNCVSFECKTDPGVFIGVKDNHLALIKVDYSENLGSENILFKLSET

T3: biotinylated human IL-33 (human, UniProt O95760 112-270, biotin-labeled with EZ-LINK NHS-PEG4-Biotin)
T3 construct: also called biotin-huIL-33
T3 sequence (looked up): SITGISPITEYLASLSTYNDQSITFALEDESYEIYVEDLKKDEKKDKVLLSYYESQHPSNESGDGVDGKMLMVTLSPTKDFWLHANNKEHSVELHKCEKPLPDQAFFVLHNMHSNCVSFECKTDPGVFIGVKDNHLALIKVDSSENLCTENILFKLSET

T4: cynomolgus monkey N-terminal 6-His-tagged and C-terminal Avi-tagged IL-33 (S112-T270) (cynomolgus monkey)
T4 chain: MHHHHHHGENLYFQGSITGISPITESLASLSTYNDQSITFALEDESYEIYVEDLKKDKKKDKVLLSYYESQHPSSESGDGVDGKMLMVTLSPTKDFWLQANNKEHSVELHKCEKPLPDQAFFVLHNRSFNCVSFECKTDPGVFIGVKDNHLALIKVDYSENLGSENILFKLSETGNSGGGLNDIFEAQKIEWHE

T5: biotinylated cyno IL-33 (cynomolgus monkey, UniProt A0A2K5W3I1 112-269, biotin-labeled with EZ-LINK NHS-PEG4-Biotin)
T5 construct: also called biotin-cyIL-33
T5 sequence: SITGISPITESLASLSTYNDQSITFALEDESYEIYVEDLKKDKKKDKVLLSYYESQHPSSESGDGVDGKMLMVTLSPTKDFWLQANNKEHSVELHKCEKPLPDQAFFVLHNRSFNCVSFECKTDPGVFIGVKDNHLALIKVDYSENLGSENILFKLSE


How the values were obtained:
[1] = biological target: T1, human IL-33 (R&D Systems, …); assay: SPR Biacore T200, 37 C
Experimental: (§1) The binding kinetics of the anti-IL-33 antibody 10C12.38.H6.87Y.58I IgG4 and each anti-IL-33 antibody listed in Table 5 (RG1-RG20) to IL-33 were measured using surface plasmon resonance (SPR) on a BIACORE® T200 instrument (GE Healthcare). Anti-human Fc or anti-murine Fc (GE Healthcare, #BR-1008-39 or BR-1008-38, respectively) was immobilized on a CM5 sensor chip via amine-based coupling according to the manufacturer's protocol. Surfaces were used to capture monoclonal human IgG4 and monoclonal murine IgGs for kinetic studies. Antibody binding was measured to human IL-33 (R&D systems, #3625-IL-010/CF) and cyno IL-33 N-His (SEQ ID NO: 317) (Genentech, Inc.). A three-fold concentration series of cytokine with a range of 3.7 to 100 nM was used for the experiments. Sensograms for binding of IL-33 were recorded using an injection time of 4 min with a flow rate of 30 μl/minute with a running buffer of 0.01 M N-(2-Acetamido)iminodiacetic acid (ADA) pH 7.4, 0.15 M NaCl, 3 mM EDTA, and 0.05% TWEEN®-20. After injection, disassociation of the ligand from the antibody was monitored for 10 min in running buffer. The surface was regenerated in between cycles with an injection of 3 M magnesium chloride or Glycine-HCl pH 1.7. All binding experiments were performed at a temperature of 25′C and 37° C. After subtraction of a blank which contained running buffer only, sensograms observed for IL-33 binding to anti-IL-33 antibodies were analyzed using a 1:1 Langmuir binding model with software supplied by the manufacturer to calculate the kinetics and binding constants, including the dissociation constant (KD). Dissociative half-lives (t_{1/2}) were calculated from the kinetic rate constants. KD (M)=koff/kₒₙ and t_{1/2} (min)=ln(2)/(60*koff). […] In Tables 6-9, *IC indicates the result is inconclusive due to weak capture of antibody was observed, leading to poor binding data.

cyno IL-33 N-His [2] = biological target: T2, cyno IL-33 N-His; assay: SPR Biacore T200, 37 C
Experimental: as §1

[3] = biological target: T1, human IL-33 (R&D Systems, …); assay: SPR Biacore T200, 25 C
Experimental: as §1

cyno IL-33 N-His [4] = biological target: T2, cyno IL-33 N-His; assay: SPR Biacore T200, 25 C
Experimental: as §1

[5] = biological target: T1, human IL-33 (R&D Systems, …); assay: cell-based or functional assay
[6] = biological target: T1, human IL-33 (R&D Systems, …); assay: cell-based or functional assay; remark: listed apart in the source
biotinylated human IL-33 = biological target: T3, biotinylated human IL-33; assay: competitive ELISA, biotin-huIL-33 to coated hST2-Fc
Experimental: (§2) The ability of the anti-IL-33 antibody 10C12.38.H6.87Y.58I IgG4 and each anti-IL-33 antibody listed in Table 5 (RG1-RG20) to block either human IL-33 or cyno IL-33 binding to human ST2 receptor was tested in a competitive binding ELISA. Briefly, 1 μg/ml of recombinant human ST2-Fc chimera protein prepared in coating buffer (50 mM sodium carbonate, pH 9.6) was coated on a 384-well MAXISORP® plate (Nalgene Nunc International; Rochester, N.Y.) and incubated overnight at 4° C. On the next day, non-specific binding was blocked with PBS containing 0.5% (w/v) solution of bovine serum albumin (BSA). Fixed concentrations of biotinylated human or cyno IL-33 prepared in assay buffer (25 mM PBS, pH 7.2, 0.1% BSA, 0.05% TWEEN®-20) were mixed with an equal volume of serially-diluted anti-IL-33 antibodies or assay buffer alone and incubated for 1 h at room temperature. The final assay concentrations of biotinylated human IL-33 or cyno IL-33 were 20 pM and 45 pM, respectively, and the final assay concentration of each antibody ranged from 0-300 nM. The pre-mixed solutions were added to the ST2-Fc coated plate and incubated for 1 h at room temperature. The binding of biotinylated IL-33 to coated ST2-Fc was detected by the sequential addition of Streptavidin Poly-HRP80 (Fitzgerald; Buckinghamshire, UK) and 3,3′,5,5′-tetramethyl benzidine (TMB) Microwell Peroxidase Substrate System (KPL; Gaithersburg, Md.). The absorbance (450 nm) was recorded using a […] ASCENT® plate reader (Thermo Scientific; Rockford, Ill.). The binding activity (%) of biotin-IL-33 to ST2 in the presence of anti-IL-33 was plotted as a function of antibody concentration. The data generated were fitted to a four-parameter equation to determine IC₅₀ values for each antibody (FIGS. 25A and 25B) using Prism software (Graphpad Software; La Jolla, Calif.). The maximum blocking (%) of each antibody was calculated as the ratio of the reduction in signal measured in the presence of antibody relative to the difference between the signal with IL-33 alone and background measurements.

[7] = biological target: T1, human IL-33 (R&D Systems, …); assay: cell-based or functional assay; remark: listed apart in the source
[8] = biological target: T4, cynomolgus monkey N-terminal …; assay: cell-based or functional assay
[9] = biological target: T4, cynomolgus monkey N-terminal …; assay: cell-based or functional assay
[10] = biological target: T1, human IL-33 (R&D Systems, …); assay: cell-based or functional assay; remark: listed apart in the source
biotinylated cyno IL-33 = biological target: T5, biotinylated cyno IL-33; assay: competitive ELISA, biotin-cyIL-33 to coated hST2-Fc
Experimental: as §2

| Kd [1] [nM] | koff [1] [s⁻¹] | kon [1] [M⁻¹ s⁻¹] | t1/2 [1] [min] | Kd (cyno IL-33 N-His [2]) [nM] | koff (cyno IL-33 N-His [2]) [s⁻¹] | kon (cyno IL-33 N-His [2]) [M⁻¹ s⁻¹] | t1/2 (cyno IL-33 N-His [2]) [min] | Kd [3] [nM] | koff [3] [s⁻¹] | kon [3] [M⁻¹ s⁻¹] | t1/2 [3] [min] | Kd (cyno IL-33 N-His [4]) [nM] | koff (cyno IL-33 N-His [4]) [s⁻¹] | kon (cyno IL-33 N-His [4]) [M⁻¹ s⁻¹] | t1/2 (cyno IL-33 N-His [4]) [min] | Ph-p38 MFI at 0.4 nM Ab (500 pM human IL-33, primary basophils) [5] [MFI] | Ph-p38 MFI at 2 nM Ab (500 pM human IL-33, primary basophils) [6] [MFI] | IC50 (biotinylated human IL-33) [nM] | Maximum Blocking (biotinylated human IL-33) [%] | Binder | other results |
| --- | --- | --- | --- | --- | --- | --- | --- | --- | --- | --- | --- | --- | --- | --- | --- | --- | --- | --- | --- | --- | --- |
| 4.04 | 0.000522 | 129000 | 22 | 2.54 | 0.000469 | 185000 | 25 | 0.798 | 7.73e-05 | 96900 | 149 | 0.656 | 7.66e-05 | 117000 | 151 | 119 | 146 | 0.099 | 27 | H1M9566N (antibody, IgG1, V domains shown, also called RG2) VH: EVQLLESGGDLVQPGGSLRLSCAASGFTFSSYAMSWVRQAPGKGLEWVSVISGSGSSTDYADSVKGRFTISRDNSRDTLHLQMNSLRAEDTAVYYCAKTFYYFYGLDVWGQGTTVTVSS VL: DIQMTQSPSSLSASLRDRVTITCRASQGISNYLAWYQQKPGKVPKVLIYAASTLQSGVPSRFSGSGSGTVFTLTISSLQTEDVATYYCQKYSSAPFTFGPGTKVDIK | IC50; SEAP reporter (OD 620), HEK-BLUE IL-33/IL-1beta cells, 10 pM hIL-33 [7]: 1.7e-08 M |
|  |  |  |  | 6.72 | 0.00505 | 751000 | 2 |  |  |  |  | 2.73 | 0.000988 | 362000 | 12 |  |  |  |  | H4H9675P (antibody, V domains shown) VH: EVQLVESGGNLEQPGGSLRLSCTASGFTFSRSAMNWVRRAPGKGLEWVSGISGSGGRTYYADSVKGRFTISRDNSKNTLYLQMNSLSAEDTAAYYCAKDSYTTSWYGGMDVWGHGTTVTVSS VL: DIQMTQSPSSVSASVGDRVTITCRASQGIFSWLAWYQQKPGKAPKLLIYAASSLQSGVPSRFSGSGSGTDFTLTISSLQPEDFAIYYCQQANSVPITFGQGTRLEIK | HEK-BLUE SEAP reporter, fold weaker than 10C12.38.H6.87Y.58I IgG4 [8]: 14 fold; IC50; SEAP reporter (OD 620), HEK-BLUE IL-33/IL-1beta cells, 5 pM cyno IL-33 (5pM cIL-33-Nhis) [9]: 5.7e-08 M |
| 0.726 | 0.000845 | 1.16e+06 | 14 | 42.7 | 0.0113 | 265000 | 1 | 0.941 | 0.000462 | 491000 | 25 | 14.9 | 0.00337 | 227000 | 3 | 149 | 142 | 1.1 | 68 | H4H9633P (antibody, IgG4, V domains shown, also called RG5) VH: EVQLVESGGGLVQPGGSLRLSCAASGFTFSSYVMSWVRQAPGKGLEWVSSISGNGGSTNYADSVKGRFTISRDNSKNTLFLEMNSLRAEDTAVYYCAKSLGTTTTFLGFDYWGQGTLVTVSS VL: DIQMTQSPSSVSASVGDRVTITCRASQGISSWLAWYQQKPGKAPKLLIYAASSLQSGVPSRFSGSGSGTYFTLTISSLQPEDFATYYCQQANSFPLTFGGGTKVEIK | IC50; IFN-gamma ELISA, primary human NK cells, 260 pM hIL-33 + IL-12 [10]: 4.1e-08 M; IC50; SEAP reporter (OD 620), HEK-BLUE IL-33/IL-1beta cells, 10 pM hIL-33 [7]: 3.7e-09 M |
| 2.37 | 0.000888 | 374000 | 13 | 8.33 | 0.00193 | 232000 | 6 | 0.811 | 0.000184 | 226000 | 63 | 3.76 | 0.000458 | 122000 | 25 | 90 | 100 | 4.1 | 75 | H1M9559N (antibody, IgG1, V domains shown, also called RG1) VH: QVQLVESGGGVVQPGRSLRLSCAASGFTFSSYGMHWVRQAPGKGLEWVAVIWYDGRNKYYTDSVKGRFTISRDNSKNTLYLQMDSLRAEDTAVYYCARERYISSYYGGFDPWGQGALVTVSS VL: DIQMTQSPSSVSASVGDRVTITCRASQGISSWLAWYQQKPGKAPKVLIYAASSLQSGVPSRFSGSGSGTDFTLTISSLQPEDFATYYCQQANSFPFTFGPGTKLDIK | IC50; SEAP reporter (OD 620), HEK-BLUE IL-33/IL-1beta cells, 10 pM hIL-33 [7]: 9.5e-09 M |
|  |  |  |  |  |  |  |  |  |  |  |  | 2.98 | 0.000606 | 203000 | 19 |  |  |  |  | H1M9565N (antibody, V domains shown) VH: QVTLKESGPVLVKPTESLTLTCSVSGFSLSNVRMGVSWIRQSPGKALEWLAHIFSNDEKSYTTSLKTRLTISKDTSRSQVVLTMTDMDPGDTATYYCARIRNLAFNYWGQGTLVTVSS VL: not shown | IC50 (biotinylated cyno IL-33): 19 nM; Maximum Blocking (biotinylated cyno IL-33): 85%; HEK-BLUE SEAP reporter IC50 [8]: 6.1 nM |
